Reference: patent US20180155451A1 (published 2018)

T1: FcγRIIb extracellular domain with C-terminal His tag (human, UniProt P31994 43-217)
T1 construct: extracellular domain; also called 2b; FcgRIIb; not shown: His tag at the C terminus
T1 sequence (looked up): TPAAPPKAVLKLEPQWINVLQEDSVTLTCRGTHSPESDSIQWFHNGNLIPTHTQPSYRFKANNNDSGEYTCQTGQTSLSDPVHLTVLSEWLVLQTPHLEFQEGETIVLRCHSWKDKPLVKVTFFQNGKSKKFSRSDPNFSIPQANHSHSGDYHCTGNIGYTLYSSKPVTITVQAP

B1: GpH7-A5/GpH7-B3 variant I332_04F/GpL16-k0 (antibody, human IgG1, kappa)
heavy 1: not shown
heavy 2: not shown
light: DIVMTQSPLSLPVTPGEPASISCQASESLVHSNRNTYLHWYLQKPGQSPQLLIYKVSNRFSGVPDRFSGSGSGTDFTLKISRVEAEDVGVYYCSQNTHVPPTFGQGTKVEIERTVAAPSVFIFPPSDEQLKSGTASVVCLLNNFYPREAKVQWKVDNALQSGNSQESVTEQDSKDSTYSLSSTLTLSKADYEKHKVYACEVTHQGLSSPVTKSFNRGEC
notes: He Ab: mutation in the GpH7-B3 H chain only; also called He Ab
B2: GpH7-A5/GpH7-B3 variant S267_06M/GpL16-k0 (antibody, human IgG1, kappa)
heavy 1: not shown
heavy 2: not shown
light: B1 light
notes: as for B1
B3: GpH7-A5/GpH7-B3 variant K334_12R/GpL16-k0 (antibody, human IgG1, kappa)
heavy 1: not shown
heavy 2: not shown
light: B1 light
notes: as for B1
B4: GpH7-A5/GpH7-B3 variant L328_13S/GpL16-k0 (antibody, human IgG1, kappa)
heavy 1: not shown
heavy 2: not shown
light: B1 light
notes: as for B1
B5: GpH7-A5/GpH7-B3 variant N325_20W/GpL16-k0 (antibody, human IgG1, kappa)
heavy 1: not shown
heavy 2: not shown
light: B1 light
notes: as for B1
B6: GpH7-A5/GpH7-B3 variant L328_19Q/GpL16-k0 (antibody, human IgG1, kappa)
heavy 1: not shown
heavy 2: not shown
light: B1 light
notes: as for B1
B7: GpH7-A5/GpH7-B3 variant P331_15Y/GpL16-k0 (antibody, human IgG1, kappa)
heavy 1: not shown
heavy 2: not shown
light: B1 light
notes: as for B1
B8: GpH7-A5/GpH7-B3 variant L328_07I/GpL16-k0 (antibody, human IgG1, kappa)
heavy 1: not shown
heavy 2: not shown
light: B1 light
notes: as for B1
B9: GpH7-A5/GpH7-B3 variant P331_03V/GpL16-k0 (antibody, human IgG1, kappa)
heavy 1: not shown
heavy 2: not shown
light: B1 light
notes: as for B1
B10: GpH7-A5/GpH7-B3 variant L328_14T/GpL16-k0 (antibody, human IgG1, kappa)
heavy 1: not shown
heavy 2: not shown
light: B1 light
notes: as for B1
B11: GpH7-A5/GpH7-B3 variant P331_04F/GpL16-k0 (antibody, human IgG1, kappa)
heavy 1: not shown
heavy 2: not shown
light: B1 light
notes: as for B1
B12: GpH7-A5/GpH7-B3 variant N325_04F/GpL16-k0 (antibody, human IgG1, kappa)
heavy 1: not shown
heavy 2: not shown
light: B1 light
notes: as for B1
B13: GpH7-A5/GpH7-B3 variant S267_04F/GpL16-k0 (antibody, human IgG1, kappa)
heavy 1: not shown
heavy 2: not shown
light: B1 light
notes: as for B1
B14: GpH7-A5/GpH7-B3 variant L328_03V/GpL16-k0 (antibody, human IgG1, kappa)
heavy 1: not shown
heavy 2: not shown
light: B1 light
notes: as for B1
B15: GpH7-A5/GpH7-B3 variant L328_06M/GpL16-k0 (antibody, human IgG1, kappa)
heavy 1: not shown
heavy 2: not shown
light: B1 light
notes: as for B1
B16: GpH7-A5/GpH7-B3 variant P331_06M/GpL16-k0 (antibody, human IgG1, kappa)
heavy 1: not shown
heavy 2: not shown
light: B1 light
notes: as for B1
B17: GpH7-A5/GpH7-B3 variant S267_02A/GpL16-k0 (antibody, human IgG1, kappa)
heavy 1: not shown
heavy 2: not shown
light: B1 light
notes: as for B1
B18: GpH7-A5/GpH7-B3 variant P331_10E/GpL16-k0 (antibody, human IgG1, kappa)
heavy 1: not shown
heavy 2: not shown
light: B1 light
notes: as for B1
B19: GpH7-A5/GpH7-B3 variant N325_07I/GpL16-k0 (antibody, human IgG1, kappa)
heavy 1: not shown
heavy 2: not shown
light: B1 light
notes: as for B1
B20: GpH7-A5/GpH7-B3 variant P331_07I/GpL16-k0 (antibody, human IgG1, kappa)
heavy 1: not shown
heavy 2: not shown
light: B1 light
notes: as for B1
B21: GpH7-A5/GpH7-B3 variant S267_09D/GpL16-k0 (antibody, human IgG1, kappa)
heavy 1: not shown
heavy 2: not shown
light: B1 light
notes: as for B1
B22: GpH7-A5/GpH7-B3 variant L328_10E/GpL16-k0 (antibody, human IgG1, kappa)
heavy 1: not shown
heavy 2: not shown
light: B1 light
notes: as for B1
B23: GpH7-A5/GpH7-B3 variant N325_13S/GpL16-k0 (antibody, human IgG1, kappa)
heavy 1: not shown
heavy 2: not shown
light: B1 light
notes: as for B1
B24: GpH7-A5/GpH7-B3 variant P331_16H/GpL16-k0 (antibody, human IgG1, kappa)
heavy 1: not shown
heavy 2: not shown
light: B1 light
notes: as for B1
B25: GpH7-A5/GpH7-B3 variant P331_20W/GpL16-k0 (antibody, human IgG1, kappa)
heavy 1: not shown
heavy 2: not shown
light: B1 light
notes: as for B1
B26: GpH7-A5/GpH7-B3 variant L328_02A/GpL16-k0 (antibody, human IgG1, kappa)
heavy 1: not shown
heavy 2: not shown
light: B1 light
notes: as for B1
B27: GpH7-A5/GpH7-B3 variant S337_07I/GpL16-k0 (antibody, human IgG1, kappa)
heavy 1: not shown
heavy 2: not shown
light: B1 light
notes: as for B1
B28: GpH7-A5/GpH7-B3 variant S267_08L/GpL16-k0 (antibody, human IgG1, kappa)
heavy 1: not shown
heavy 2: not shown
light: B1 light
notes: as for B1
B29: GpH7-A5/GpH7-B3 variant S267_03V/GpL16-k0 (antibody, human IgG1, kappa)
heavy 1: not shown
heavy 2: not shown
light: B1 light
notes: as for B1
B30: GpH7-A5/GpH7-B3 variant N325_03V/GpL16-k0 (antibody, human IgG1, kappa)
heavy 1: not shown
heavy 2: not shown
light: B1 light
notes: as for B1
B31: GpH7-A5/GpH7-B3 variant L328_04F/GpL16-k0 (antibody, human IgG1, kappa)
heavy 1: not shown
heavy 2: not shown
light: B1 light
notes: as for B1
B32: GpH7-A5/GpH7-B3 variant L328_09D/GpL16-k0 (antibody, human IgG1, kappa)
heavy 1: not shown
heavy 2: not shown
light: B1 light
notes: as for B1
B33: GpH7-A5/GpH7-B3 variant S267_05P/GpL16-k0 (antibody, human IgG1, kappa)
heavy 1: not shown
heavy 2: not shown
light: B1 light
notes: as for B1
B34: GpH7-A5/GpH7-B3 variant S267_07I/GpL16-k0 (antibody, human IgG1, kappa)
heavy 1: not shown
heavy 2: not shown
light: B1 light
notes: as for B1
B35: GpH7-A5/GpH7-B3 variant S267_01G/GpL16-k0 (antibody, human IgG1, kappa)
heavy 1: not shown
heavy 2: not shown
light: B1 light
notes: as for B1
B36: GpH7-A5/GpH7-B3 variant N325_06M/GpL16-k0 (antibody, human IgG1, kappa)
heavy 1: not shown
heavy 2: not shown
light: B1 light
notes: as for B1
B37: GpH7-A5/GpH7-B3 variant N325_08L/GpL16-k0 (antibody, human IgG1, kappa)
heavy 1: not shown
heavy 2: not shown
light: B1 light
notes: as for B1
B38: GpH7-A5/GpH7-B3 variant N325_09D/GpL16-k0 (antibody, human IgG1, kappa)
heavy 1: not shown
heavy 2: not shown
light: B1 light
notes: as for B1
B39: GpH7-A5/GpH7-B3 variant L328_15Y/GpL16-k0 (antibody, human IgG1, kappa)
heavy 1: not shown
heavy 2: not shown
light: B1 light
notes: as for B1
B40: GpH7-A5/GpH7-B3 variant L328_20W/GpL16-k0 (antibody, human IgG1, kappa)
heavy 1: not shown
heavy 2: not shown
light: B1 light
notes: as for B1

target: T1, FcγRIIb extracellular domain with …; test: SPR (Biacore), relative binding, GpH7-A5/GpH7-B3/GpL16-k0 = 100
Protocol: (§1) Analysis of interaction between objective antibody and the FcγR was carried out using Biacore T100 (GE Healthcare). HBS-EP+ (GE Healthcare) was used as the running buffer, and the measurement temperature was set to 25° C. Chips produced by immobilizing the antigen peptide by the amine coupling method to a Series S Sencor Chip CM5 (GE Healthcare), or alternatively, chips produced by allowing preliminarily biotinylated antigen peptides to interact with and immobilize onto a Series S Sensor Chip SA (certified) (GE Healthcare) were used. Antibodies of interest were captured onto an antigen peptide-immobilized chip, and allowed to interact to each FcγR diluted with running buffer. To regenerate and repeatedly use the chip, the antibodies captured on the chip were washed off by reacting 10 mM glycine-HCl, pH 1.5.
(§2) The FcγR-binding activity of each antibody was assessed primarily using as an indicator the FcγR-binding activity and dissociation constant for FcγR.

Binder	He/Con_2b
B1	104 % of control
B2	210 % of control
B3	111 % of control
B4	149 % of control
B5	169 % of control
B6	105 % of control
B7	114 % of control
B8	160 % of control
B9	119 % of control
B10	141 % of control
B11	110 % of control
B12	143 % of control
B13	48 % of control
B14	126 % of control
B15	142 % of control
B16	102 % of control
B17	243 % of control
B18	116 % of control
B19	171 % of control
B20	114 % of control

Binder	He/Con_2b
B21	310 % of control
B22	172 % of control
B23	177 % of control
B24	116 % of control
B25	111 % of control
B26	144 % of control
B27	104 % of control
B28	109 % of control
B29	192 % of control
B30	111 % of control
B31	219 % of control
B32	199 % of control
B33	31.5 % of control
B34	192 % of control
B35	105 % of control
B36	217 % of control
B37	197 % of control
B38	124 % of control
B39	193 % of control
B40	235 % of control

target: T2, FcγRIIIa extracellular domain with C-terminal His tag (human, UniProt P08637 17-208); test: as above
T2 construct: extracellular domain; also called 3a; FcgRIIIa; not shown: His tag at the C terminus
Protocol: as §1, §2

T2 sequence (P08637 17-208): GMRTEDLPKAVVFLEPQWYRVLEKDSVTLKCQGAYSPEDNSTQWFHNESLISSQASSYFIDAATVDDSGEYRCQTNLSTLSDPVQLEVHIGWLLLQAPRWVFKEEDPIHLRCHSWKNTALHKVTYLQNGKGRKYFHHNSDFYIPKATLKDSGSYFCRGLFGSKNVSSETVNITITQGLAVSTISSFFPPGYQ

Binder	He/Con_3a
B1	97.6 % of control
B2	66 % of control
B3	90.8 % of control
B4	71.7 % of control
B5	32.8 % of control
B6	81.1 % of control
B7	81.9 % of control
B8	84 % of control
B9	73.2 % of control
B10	75.3 % of control
B11	77.3 % of control
B12	20.7 % of control
B13	11 % of control
B14	78.7 % of control
B15	78.6 % of control
B16	74.8 % of control
B17	150 % of control
B18	75.1 % of control
B19	28.7 % of control
B20	66 % of control

Binder	He/Con_3a
B21	181 % of control
B22	53.4 % of control
B23	65.1 % of control
B24	80.2 % of control
B25	78.6 % of control
B26	79.1 % of control
B27	94.8 % of control
B28	19.5 % of control
B29	30.8 % of control
B30	30.3 % of control
B31	79.3 % of control
B32	47.8 % of control
B33	15.7 % of control
B34	25.2 % of control
B35	53.8 % of control
B36	31.4 % of control
B37	33.3 % of control
B38	48 % of control
B39	68.3 % of control
B40	37.4 % of control
